Experimental data reported in article PMC4169507.

target: fibronectin (UniProt P02751); experiment: SPR; settings: not given

| Substance | Kd [µM] |
| --- | --- |
| AggAdsA triple mutant (Lys73Ala, Lys76Ala, and Lys78Ala) (domain or fragment) | > 200 |
| AggBdsA (AAF/I minor subunit AggB complemented with the donor strand of AggA) (domain or fragment) | 100 |

target: fibronectin (UniProt P02751); experiment: bacterial adherence to fibronectin-coated 96-well plates (colony counting); settings: plates coated with 25 µg/ml of fibronectin; in the presence of arabinose; parent: 100; read off a plot

| Substance | percent of parent (% of binding to Fn) |
| --- | --- |
| AafA, major subunit of AAF/II, on wild type EAEC 042 D14A | 99 |
| AafA, major subunit of AAF/II, on wild type EAEC 042 E57A | 76 |
| AafA, major subunit of AAF/II, on wild type EAEC 042 E131A | 75 |
| AafA, major subunit of AAF/II, on wild type EAEC 042 G69A | 81 |
| AafA, major subunit of AAF/II, on wild type EAEC 042 K66A | 0 |
| AafA, major subunit of AAF/II, on wild type EAEC 042 K66R | 51 |
| AafA, major subunit of AAF/II, on wild type EAEC 042 K72A | 6 |
| AafA, major subunit of AAF/II, on wild type EAEC 042 K72R | 100 |
| AafA, major subunit of AAF/II, on wild type EAEC 042 L132A | 79 |
| AafA, major subunit of AAF/II, on wild type EAEC 042 N88A | 70 |
| AafA, major subunit of AAF/II, on wild type EAEC 042 R23A | 12 |
| AafA, major subunit of AAF/II, on wild type EAEC 042 R40A | 2 |
| AafA, major subunit of AAF/II, on wild type EAEC 042 R44A | 6 |
| AafA, major subunit of AAF/II, on wild type EAEC 042 S30A | 65 |
| AafA, major subunit of AAF/II, on wild type EAEC 042 S73A | 80 |
| AafA, major subunit of AAF/II, on wild type EAEC 042 T38L | 72 |
| AafA, major subunit of AAF/II, on wild type EAEC 042 T77A | 67 |
| AafA, major subunit of AAF/II, on wild type EAEC 042 T114A | 71 |
